Experimental data: PMC10653388

Target: endogenous S. cerevisiae TREX complex (S. cerevisiae) (UniProt P17629)
Assay: negative-stain EM

stoichiometry N: 2
Substance: endogenous S. cerevisiae TREX complex, P17629;P53552;P33441;O13539;P53851;Q07478;Q12159;P25555;P38922
